Assay results from paper PMC11417369, “DNA sequence and chromatin differentiate sequence-specific transcription factor binding in the human malaria parasite Plasmodium falciparum”.

B1: CACACA_site9255 (dsDNA)
DNA 1: AAAGAAGGTAAACACACACACACACCGACAAAAAAA
DNA 2: TTTTTTTGTCGGTGTGTGTGTGTGTTTACCTTCTTT
B2: CACACA_site7645 (dsDNA)
DNA 1: AAAAAAAATACATACACACACACACGCACATATATA
DNA 2: TATATATGTGCGTGTGTGTGTGTATGTATTTTTTTT
B3: CACACA_site499 (dsDNA)
DNA 1: CACCCACCCAGACACACACACACAAAAAAAAAAAGA
DNA 2: TCTTTTTTTTTTTGTGTGTGTGTGTCTGGGTGGGTG
B4: CACACA_site8067 (dsDNA)
DNA 1: AACAAATACAGACACACACACACACTAATAAAAAAA
DNA 2: TTTTTTTATTAGTGTGTGTGTGTGTCTGTATTTGTT
B5: CACACA_site2202 (dsDNA)
DNA 1: CGCACCCACAGACACACACACACATATATATATATA
DNA 2: TATATATATATATGTGTGTGTGTGTCTGTGGGTGCG
B6: CACACA_site6426 (dsDNA)
DNA 1: GGCATACACGAACACACACACACACGCACATATATA
DNA 2: TATATATGTGCGTGTGTGTGTGTGTTCGTGTATGCC
B7: CACACA_site4493 (dsDNA)
DNA 1: GGCATACACGGACACACACACACACCGACATATATA
DNA 2: TATATATGTCGGTGTGTGTGTGTGTCCGTGTATGCC
B8: CACACA_site5248 (dsDNA)
DNA 1: CACAGACACGGACACACACACATATATATATATATA
DNA 2: TATATATATATATATGTGTGTGTGTCCGTGTCTGTG
B9: CACACA_site4488 (dsDNA)
DNA 1: TACAAATATGGACACACACACATATATATATATATA
DNA 2: TATATATATATATATGTGTGTGTGTCCATATTTGTA
B10: CACACA_site5249 (dsDNA)
DNA 1: CGCACAGACGGACACACACACACATATATATATATA
DNA 2: TATATATATATATGTGTGTGTGTGTCCGTCTGTGCG
B11: CACACA_site3394 (dsDNA)
DNA 1: AACAGACAGAAACACACACACATATATATATATATA
DNA 2: TATATATATATATATGTGTGTGTGTTTCTGTCTGTT
B12: CACACA_site4352 (dsDNA)
DNA 1: CCCACAGACGGACACACACACACATATATATATATA
DNA 2: TATATATATATATGTGTGTGTGTGTCCGTCTGTGGG
B13: CACACA_site5894 (dsDNA)
DNA 1: AAAAGGAACGGACACACACACATATATATATATATA
DNA 2: TATATATATATATATGTGTGTGTGTCCGTTCCTTTT
B14: CACACA_site5883 (dsDNA)
DNA 1: TACATACACGGACACACACACATATATATATATATA
DNA 2: TATATATATATATATGTGTGTGTGTCCGTGTATGTA
B15: CACACA_site3541 (dsDNA)
DNA 1: GGAATAACCAGACACACACACACATATATATATATA
DNA 2: TATATATATATATGTGTGTGTGTGTCTGGTTATTCC
B16: CACACA_site6473 (dsDNA)
DNA 1: AAAAAAAAAAGACACACACACACACTAATACATACA
DNA 2: TGTATGTATTAGTGTGTGTGTGTGTCTTTTTTTTTT
B17: CACACA_site5252 (dsDNA)
DNA 1: AACACGCGCGGACACACACACACACCCACATATATA
DNA 2: TATATATGTGGGTGTGTGTGTGTGTCCGCGCGTGTT
B18: CACACA_site4355 (dsDNA)
DNA 1: CACAGACACGGACACACACACACACCCACATATATA
DNA 2: TATATATGTGGGTGTGTGTGTGTGTCCGTGTCTGTG
B19: CACACA_site6446 (dsDNA)
DNA 1: TACACGCATAGACACACACACACACGCATATAAATA
DNA 2: TATTTATATGCGTGTGTGTGTGTGTCTATGCGTGTA
B20: CACACA_site8001 (dsDNA)
DNA 1: TGGGAGCACAGACACACACACACACCGATATATATA
DNA 2: TATATATATCGGTGTGTGTGTGTGTCTGTGCTCCCA
B21: CACACA_site5884 (dsDNA)
DNA 1: AATACATACGGACACACACACACATATATATATATA
DNA 2: TATATATATATATGTGTGTGTGTGTCCGTATGTATT
B22: CACACA_site5272 (dsDNA)
DNA 1: TATACAGATGGACACACACACATATATATATATATA
DNA 2: TATATATATATATATGTGTGTGTGTCCATCTGTATA
B23: CACACA_site906 (dsDNA)
DNA 1: AAAGGATACAGACACACACACACATATATATATATA
DNA 2: TATATATATATATGTGTGTGTGTGTCTGTATCCTTT
B24: CACACA_site5031 (dsDNA)
DNA 1: AGTATACTCGGACACACACACACATATATATATATA
DNA 2: TATATATATATATGTGTGTGTGTGTCCGAGTATACT
B25: CACACA_site4674 (dsDNA)
DNA 1: CATATAAAAGGACACACACACACATATATATATATA
DNA 2: TATATATATATATGTGTGTGTGTGTCCTTTTATATG
B26: CACACA_site493 (dsDNA)
DNA 1: AACATACAGAAACACACACACACACCCACACCCACA
DNA 2: TGTGGGTGTGGGTGTGTGTGTGTGTTTCTGTATGTT
B27: CACACA_site453 (dsDNA)
DNA 1: CAAAGACACAAACACACACACACATACATACATACA
DNA 2: TGTATGTATGTATGTGTGTGTGTGTTTGTGTCTTTG
B28: CACACA_site2666 (dsDNA)
DNA 1: AAAAAACACAGACACACACACATATACATACATACA
DNA 2: TGTATGTATGTATATGTGTGTGTGTCTGTGTTTTTT
B29: CACACA_site5247 (dsDNA)
DNA 1: AGGATATGCGGACACACACACATATATATATATATA
DNA 2: TATATATATATATATGTGTGTGTGTCCGCATATCCT
B30: CACACA_site2919 (dsDNA)
DNA 1: TACATACAGAAACACACACACACATATATATATATA
DNA 2: TATATATATATATGTGTGTGTGTGTTTCTGTATGTA
B31: CACACA_site3654 (dsDNA)
DNA 1: AAAAAACAAAAACACACACACACATATATATATATA
DNA 2: TATATATATATATGTGTGTGTGTGTTTTTGTTTTTT
B32: CACACA_site3589 (dsDNA)
DNA 1: AATAAAAAGAAACACACACACACACCCATATATATA
DNA 2: TATATATATGGGTGTGTGTGTGTGTTTCTTTTTATT
B33: CACACA_site2267 (dsDNA)
DNA 1: AATATAAATAAAAACACACACACACCCATATATATA
DNA 2: TATATATATGGGTGTGTGTGTGTTTTTATTTATATT
B34: CACACA_site8012 (dsDNA)
DNA 1: ACATCAAGCAGACACACACACACACCCACCCACCCA
DNA 2: TGGGTGGGTGGGTGTGTGTGTGTGTCTGCTTGATGT
B35: CACACA_site8840 (dsDNA)
DNA 1: ATAAATAAAGGACACACACACACACTAATAAAAAAA
DNA 2: TTTTTTTATTAGTGTGTGTGTGTGTCCTTTATTTAT
B36: XGTACX_negctrl_site521 (dsDNA)
DNA 1: ATGTTATAAATCTTAATATATATATGCAAAAGAGAA
DNA 2: TTCTCTTTTGCATATATATATTAAGATTTATAACAT
B37: XGTACX_negctrl_site604 (dsDNA)
DNA 1: ATAAATCGATAAAATATATGCTACATGAATAAATAA
DNA 2: TTATTTATTCATGTAGCATATATTTTATCGATTTAT
B38: XGTACX_negctrl_site541 (dsDNA)
DNA 1: TTGTCAAAAATTACACACATAAATGAATAAATAAAT
DNA 2: ATTTATTTATTCATTTATGTGTGTAATTTTTGACAA
B39: XGTACX_negctrl_site394 (dsDNA)
DNA 1: AGGTGAAAAATATATAATAATGTAACAAAAAAAAAT
DNA 2: ATTTTTTTTTGTTACATTATTATATATTTTTCACCT
B40: XGTACX_negctrl_site580 (dsDNA)
DNA 1: ATACAAATTAAGCCTCAAGTTCTTTTTTTTAACATA
DNA 2: TATGTTAAAAAAAAGAACTTGAGGCTTAATTTGTAT
B41: XGTACX_negctrl_site191 (dsDNA)
DNA 1: TTTTTAAAAAATAAGAAAAAATAAATATATTACAAA
DNA 2: TTTGTAATATATTTATTTTTTCTTATTTTTTAAAAA
B42: XGTACX_negctrl_site59 (dsDNA)
DNA 1: AATATTACGTGTTTGGTATTTTTCGATGTTGGCAGG
DNA 2: CCTGCCAACATCGAAAAATACCAAACACGTAATATT

What follows are binders tested against T1, AP2-LT D1 (Plasmodium falciparum, UniProt Q8IAM1 2520-2577) (assay: gcPBM; about 25 ug protein; PBS, 1% milk, 0.2 mg/ml BSA, salmon testes DNA, 0.03% Triton X-100). Conditions: tags: N-terminal GST (pGEX-4T-1), kept; label: surface-attached array probe.
T1 sequence: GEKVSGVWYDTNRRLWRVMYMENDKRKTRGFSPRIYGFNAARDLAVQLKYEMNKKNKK
With B1 the binding signal was 10.6 ln median PBM intensity, better of two orientations.
In the case of B2, the binding signal is reported as 10.7 ln median PBM intensity, better of two orientations.
In the case of B3, the binding signal is reported as 10.6 ln median PBM intensity, better of two orientations.
B4 was tested, and the binding signal was 10.8 ln median PBM intensity, better of two orientations.
B5 was tested, and the binding signal was 10.8 ln median PBM intensity, better of two orientations.
For B6, the binding signal was 10.7 ln median PBM intensity, better of two orientations.
For B7, the binding signal was 10.6 ln median PBM intensity, better of two orientations.
B8 was tested, and the binding signal was 10.9 ln median PBM intensity, better of two orientations.
In the case of B9, the binding signal is reported as 10.7 ln median PBM intensity, better of two orientations.
For B10, the binding signal was 10.7 ln median PBM intensity, better of two orientations.
With B11 the binding signal was 10.7 ln median PBM intensity, better of two orientations.
For B12, the binding signal was 10.6 ln median PBM intensity, better of two orientations.
For B13, the binding signal was 10.7 ln median PBM intensity, better of two orientations.
With B14 the binding signal was 10.8 ln median PBM intensity, better of two orientations.
With B15 the binding signal was 10.7 ln median PBM intensity, better of two orientations.
B16 was tested, and the binding signal was 10.6 ln median PBM intensity, better of two orientations.
B17 was tested, and the binding signal was 10.7 ln median PBM intensity, better of two orientations.
With B18 the binding signal was 10.7 ln median PBM intensity, better of two orientations.
With B19 the binding signal was 10.7 ln median PBM intensity, better of two orientations.
For B20, the binding signal was 10.6 ln median PBM intensity, better of two orientations.
In the case of B21, the binding signal is reported as 10.7 ln median PBM intensity, better of two orientations.
With B22 the binding signal was 10.7 ln median PBM intensity, better of two orientations.
For B23, the binding signal was 10.7 ln median PBM intensity, better of two orientations.
In the case of B24, the binding signal is reported as 10.6 ln median PBM intensity, better of two orientations.
For B25, the binding signal was 10.6 ln median PBM intensity, better of two orientations.
B26 was tested, and the binding signal was 10.6 ln median PBM intensity, better of two orientations.
B27 was tested, and the binding signal was 10.6 ln median PBM intensity, better of two orientations.
With B28 the binding signal was 10.6 ln median PBM intensity, better of two orientations.
With B29 the binding signal was 10.7 ln median PBM intensity, better of two orientations.
For B30, the binding signal was 10.8 ln median PBM intensity, better of two orientations.
B31 was tested, and the binding signal was 10.7 ln median PBM intensity, better of two orientations.
For B32, the binding signal was 10.7 ln median PBM intensity, better of two orientations.
For B33, the binding signal was 10.6 ln median PBM intensity, better of two orientations.
With B34 the binding signal was 10.8 ln median PBM intensity, better of two orientations.
B35 was tested, and the binding signal was 10.7 ln median PBM intensity, better of two orientations.

The binders below were run against T2, AP2-G D1 (Plasmodium falciparum, UniProt Q8I5I9 2123-2245) in the same assay as above. Conditions: tags: N-terminal GST (pGEX-4T-1), kept; label: surface-attached array probe.
T2 sequence: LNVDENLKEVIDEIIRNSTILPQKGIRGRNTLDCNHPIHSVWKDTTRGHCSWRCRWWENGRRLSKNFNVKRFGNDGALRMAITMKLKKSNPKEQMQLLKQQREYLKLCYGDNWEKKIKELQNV
B36 was tested, and the binding signal was 9.88 ln median PBM intensity, better of two orientations.
B37 was tested, and the binding signal was 9.88 ln median PBM intensity, better of two orientations.
In the case of B38, the binding signal is reported as 9.88 ln median PBM intensity, better of two orientations.
For B39, the binding signal was 9.88 ln median PBM intensity, better of two orientations.
In the case of B40, the binding signal is reported as 9.88 ln median PBM intensity, better of two orientations.
B41 was tested, and the binding signal was 9.86 ln median PBM intensity, better of two orientations.
With B42 the binding signal was 9.87 ln median PBM intensity, better of two orientations.
